The labels stand for the following.
B1: FCHO1 (parent)
chain: DKLALCHLELTRKLQDLIKDVLRY
B2: TRIB1 (parent)
chain: EIGTSDQIVPEYQEDSDISSFFC
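Note: lentivirally expressed fusions sorted by FACS into six bins by GFP to DsRed ratio, PSI derived from sequencing read proportions per bin multiplied by bin number.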

The first data set covers variants of B1. As to the kind of experiment: protein stability index of a GFP-peptide fusion (GPS, HEK-293T) (PSI 1-6); higher = more stable. To be noted: c terminus: a fixed tail appended.
In the case of DKTALCHLELTRKLQDLIKDVLRY, the protein stability index was found to be 1.81.
On to DKCALCHLELTRKLQDLIKDVLRY, for which the protein stability index stood at 2.51.
The same measure, in the same setting: the same measure for DKKALCHLELTRKLQDLIKDVLRY: 2.23; for DKAALCHLELTRKLQDLIKDVLRY: 1.44.
The same measure, in the same setting: the same measure for DKDALCHLELTRKLQDLIKDVLRY: 2.09; for DKVALCHLELTRKLQDLIKDVLRY: 3.04; for DKSALCHLELTRKLQDLIKDVLRY: 1.79.
The same measure, in the same setting: the same measure for DKFALCHLELTRKLQDLIKDVLRY: 2.93; for DKEALCHLELTRKLQDLIKDVLRY: 2.3; for DKNALCHLELTRKLQDLIKDVLRY: 2.25.
Turning to DKHALCHLELTRKLQDLIKDVLRY, the protein stability index amounted to 2.12.
The same measure, in the same setting: the same measure for DKLALMHLELTRKLQDLIKDVLRY: 3.01; for DKLALKHLELTRKLQDLIKDVLRY: 3.
Same read-out and setting: the same measure for DKLALAHLELTRKLQDLIKDVLRY: 2.64; for DKLALPHLELTRKLQDLIKDVLRY: 2.37; for DKLALVHLELTRKLQDLIKDVLRY: 2.53.
On the same count and under the same terms, the result for DKLALSHLELTRKLQDLIKDVLRY reads 3.13; that for DKLALRHLELTRKLQDLIKDVLRY, 2.52.
With DKLALEHLELTRKLQDLIKDVLRY, the protein stability index was found to be 2.04.
On the same count and under the same terms, the same measure for DKLALTHLELTRKLQDLIKDVLRY: 2.99.
The same measure, in the same setting: the same measure for DKLALDHLELTRKLQDLIKDVLRY: 1.15; for DKLALQHLELTRKLQDLIKDVLRY: 3.1.
On the same count and under the same terms, the result for DKLALNHLELTRKLQDLIKDVLRY reads 3.3; that for DKLALWHLELTRKLQDLIKDVLRY, 2.01; that for FKLALCHLELTRKLQDLIKDVLRY, 3.44.
As for RKLALCHLELTRKLQDLIKDVLRY, the protein stability index was 3.61.
On the same count and under the same terms, the same measure for PKLALCHLELTRKLQDLIKDVLRY: 4.01; for YKLALCHLELTRKLQDLIKDVLRY: 2.63.
Same read-out and setting: the same measure for SKLALCHLELTRKLQDLIKDVLRY: 2.45; for VKLALCHLELTRKLQDLIKDVLRY: 3.12; for QKLALCHLELTRKLQDLIKDVLRY: 4.47.
Same read-out and setting: the result for TKLALCHLELTRKLQDLIKDVLRY reads 2.77; that for NKLALCHLELTRKLQDLIKDVLRY, 4.01.
Take EKLALCHLELTRKLQDLIKDVLRY: the protein stability index amounted to 2.15.
The same measure, in the same setting: the same measure for KKLALCHLELTRKLQDLIKDVLRY: 2.37; for GKLALCHLELTRKLQDLIKDVLRY: 5.1.
Turning to WKLALCHLELTRKLQDLIKDVLRY, the protein stability index turned out to be 1.41.
Take DKLAYCHLELTRKLQDLIKDVLRY: the protein stability index worked out at 2.01.
Take DKLASCHLELTRKLQDLIKDVLRY: the protein stability index amounted to 3.18.
On the same count and under the same terms, the same measure for DKLATCHLELTRKLQDLIKDVLRY: 1.72; for DKLAECHLELTRKLQDLIKDVLRY: 1.62.
Still for that read-out and setting: the result for DKLAPCHLELTRKLQDLIKDVLRY reads 1.82.
Same read-out and setting: the result for DKLAICHLELTRKLQDLIKDVLRY reads 1.94; that for DKLAWCHLELTRKLQDLIKDVLRY, 4.03; that for DKLAHCHLELTRKLQDLIKDVLRY, 2.98.
As to DTLALCHLELTRKLQDLIKDVLRY, the protein stability index is 1.97.
On the same count and under the same terms, the same measure for DSLALCHLELTRKLQDLIKDVLRY: 2.21; for DDLALCHLELTRKLQDLIKDVLRY: 3.04.
The same measure, in the same setting: the result for DQLALCHLELTRKLQDLIKDVLRY reads 2.45; that for DPLALCHLELTRKLQDLIKDVLRY, 1.39.
Take DLLALCHLELTRKLQDLIKDVLRY: the protein stability index was 2.64.
Take DALALCHLELTRKLQDLIKDVLRY: the protein stability index came out at 1.43.
Same read-out and setting: the same measure for DELALCHLELTRKLQDLIKDVLRY: 2.28; for DCLALCHLELTRKLQDLIKDVLRY: 3.86; for DMLALCHLELTRKLQDLIKDVLRY: 3.83.
Still for that read-out and setting: the same measure for DHLALCHLELTRKLQDLIKDVLRY: 2.72; for DILALCHLELTRKLQDLIKDVLRY: 2.57.
On the same count and under the same terms, the same measure for DNLALCHLELTRKLQDLIKDVLRY: 1.26.
Take DKLCLCHLELTRKLQDLIKDVLRY: the protein stability index is 2.52.
The same measure, in the same setting: the result for DKLQLCHLELTRKLQDLIKDVLRY reads 3.43; that for DKLGLCHLELTRKLQDLIKDVLRY, 1.6.
Still for that read-out and setting: the result for DKLSLCHLELTRKLQDLIKDVLRY reads 1.81; that for DKLWLCHLELTRKLQDLIKDVLRY, 3.22; that for DKLLLCHLELTRKLQDLIKDVLRY, 1.98.
On the same count and under the same terms, the result for DKLILCHLELTRKLQDLIKDVLRY reads 3.21.
On to DKLPLCHLELTRKLQDLIKDVLRY, for which the protein stability index was found to be 2.33.
The same measure, in the same setting: the same measure for DKLFLCHLELTRKLQDLIKDVLRY: 2.01; for DKLALCNLELTRKLQDLIKDVLRY: 3.01.
On the same count and under the same terms, the same measure for DKLALCSLELTRKLQDLIKDVLRY: 1.81; for DKLALCMLELTRKLQDLIKDVLRY: 2.67; for DKLALCFLELTRKLQDLIKDVLRY: 2.4.
As to DKLALCCLELTRKLQDLIKDVLRY, the protein stability index is 2.12.
The same measure, in the same setting: the result for DKLALCLLELTRKLQDLIKDVLRY reads 1.56; that for DKLALCILELTRKLQDLIKDVLRY, 1.49.
The same measure, in the same setting: the result for DKLALCTLELTRKLQDLIKDVLRY reads 3.2; that for DKLALCALELTRKLQDLIKDVLRY, 1.84; that for DKLALCWLELTRKLQDLIKDVLRY, 1.38.
Take DKLALCQLELTRKLQDLIKDVLRY: the protein stability index amounted to 2.88.
On the same count and under the same terms, the same measure for DKLALCDLELTRKLQDLIKDVLRY: 3.07; for DKLALCRLELTRKLQDLIKDVLRY: 2.93.

Another data set covers variants of B2. Described as above. To be noted: c terminus: native.
For the variant EIGTTDQIVPEYQEDSDISSFFC, the protein stability index was determined as 2.2.
Still for that read-out and setting: the same measure for EIGTADQIVPEYQEDSDISSFFC: 2.81; for EIGTHDQIVPEYQEDSDISSFFC: 3.06.
On the same count and under the same terms, the result for EIGTYDQIVPEYQEDSDISSFFC reads 1.73; that for EIGTSDQIVPEYQEDSDISSHFC, 4.58.
The same measure, in the same setting: the same measure for EIGTSDQIVPEYQEDSDISSWFC: 2.89.
As for EIGTSDQIVPEYQEDSDISSLFC, the protein stability index was 3.45.
As to EIGTSDQIVPEYQEDSDISSNFC, the protein stability index was 4.7.
Same read-out and setting: the result for EIGTSDQIVPEYQEDSDISSKFC reads 4.67; that for EIGTSDQIVPCYQEDSDISSFFC, 2.61; that for EIGTSDQIVPSYQEDSDISSFFC, 3.1.
On the same count and under the same terms, the result for EIGTSDQIVPYYQEDSDISSFFC reads 3.46; that for EIGTSDQIVPEYQEDSSISSFFC, 3.13; that for EIGTSDQIVPEYQEDSTISSFFC, 3.29.
Same read-out and setting: the result for EIGTSDQIVPEYQEDSGISSFFC reads 4.13.

The values are drawn from the supplement of paper PMC10567573.
